Reference: patent US20040086933A1 (Chugai, published 2004)

B1: full-length striamin with a histidine tag (pQE30/full-length striamin) (other)
chain: MKGLAGEWHQDSGLDIREKAEDFSLPWLLPRLMALVMQEEGRFRSDRNHGYLREWLRIQALTACLPSPLGRVHYAQCSPKQKGRLPRGWASLPSLSVLVRALRASNAFSLGNYYCCPWRGTRWAKGQPGEWARPRASSPSAHREGVAVT
notes: also called pQE30/striamin; His-tagged striamin; not shown: N-terminal His tag encoded by the pQE30 vector (Qiagen)
B2: N-striamin with a histidine tag (pQE30/N-striamin) (other)
chain: MKGLAGEWHQDSGLDIREKAEDFSLPWLLPRLMALVMQEEGRFRSDRNHGYLREWLRIQALTACLPSPLGRVHYA
notes: not shown: N-terminal His tag encoded by the pQE30 vector (Qiagen)
B3: C-striamin with a histidine tag (pQE30/C-striamin) (other)
chain: QCSPKQKGRLPRGWASLPSLSVLVRALRASNAFSLGNYYCCPWRGTRWAKGQPGEWARPRASSPSAHREGVAVT
notes: as for B2

Assays:
[1] = biological target: temperature-sensitive p53 (pMSVp53Val135) (UniProt P02340); experiment: cell-based or functional assay
GST = biological target: T1, GST (UniProt P08515 1-218 = GST); experiment: GST pull-down with glutathione-Sepharose, anti-His Western blot (FIG. 9, Lanes 4 to 6)
T1 construct: also called glutathione S-transferase
T1 sequence (P08515 whole entry): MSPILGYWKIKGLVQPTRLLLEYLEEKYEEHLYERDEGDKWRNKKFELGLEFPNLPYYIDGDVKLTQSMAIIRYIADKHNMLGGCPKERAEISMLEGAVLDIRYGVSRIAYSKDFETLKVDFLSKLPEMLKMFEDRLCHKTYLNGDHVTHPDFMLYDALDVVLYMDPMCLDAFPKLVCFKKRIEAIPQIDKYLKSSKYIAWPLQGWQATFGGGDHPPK
Protocol: Different striamins conjugated to histidines were reacted with p53 conjugated to GST in vitro, and the reaction was immunoprecipitated with glutathione Sepharose beads, followed by Western blot analysis using anti-histidine-tag and anti-p53 antibodies (“GST-p53 pull” in the figure).
Each protein purified in step (1) (2 to 5 μg) was mixed with GST or GST-p53 (1 μg, Santa Cruz) in NP40-lysis buffer (500 μl). After two hours, glutathione-Sepharose beads (20 μl) were added to the suspension and rotated for mixing for one hour at 4° C. The beads were precipitated by centrifugation, washed three times with TBS and then boiled in SDS-sample buffer. Subsequently, SDS-PAGE was carried out for each sample, followed by detection of the respective striamins conjugated to the histidines by Western blotting using an anti-histidine-tag antibody. In addition, p53 was detected by Western blotting using anti-p53 antibody.

Molecule	p53 activity (p53-responsive luciferase reporter PG-13luc in p53-/- MEF cells) [1] [fold]	β-gal positive cells (p53-responsive β-gal reporter pRGC fos-lacZ in microinjected p53-/- MEF cells) [1] [%]	binding result (GST)
striamin (full-length, untagged)	4.6	5	
B1			no binding
B2			no binding
B3			no binding
